Data from patent US20150218250A1.

Columns and labels:
[1] = target: antibody captured by the human Fab capture kit; assay: SPR (BIAcore), antibody captured via human Fab capture kit, 50 nM receptor injected as analyte
[2] = target: antibody captured by the human Fab capture kit; assay: SPR (BIAcore), antibody captured via human Fab capture kit, 50 nM receptor fusion injected as analyte
- [3] = assay: SPR; monomeric, middle panel
- [4] = assay: SPR; monomeric, top panel

For “FcgammaRIIIaV158 (HisAvi-tag comprising functional variant) (receptor)”, the response units [1] was 40 RU.
With “FcgammaRIIIaV158-Avi-IgA Protease-Fc LALA P329G fusion polypeptide (Fc fusion)” the response units [2] was greater than 100 RU.
With “monomeric IL18R-Fc fusion polypeptide (middle)” the Kd (- [3]) was 0.801 nM.
With “monomeric IL18R-Fc fusion polypeptide (top)” the Kd (- [4]) was 0.921 nM.
